Results reported in IntAct's records for PubMed 29039417.

B1: BBSome complex member BBS2 (Homo sapiens), Q9BXC9 (parent)
chain: MLLPVFTLKLRHKISPRMVAIGRYDGTHPCLAAATQTGKVFIHNPHTRNQHVSASRVFQSPLESDVSLLSINQAVSCLTAGVLNPELGYDALLVGTQTNLLAYDVYNNSDLFYREVADGANAIVLGTLGDISSPLAIIGGNCALQGFNHEGSDLFWTVTGDNVNSLALCDFDGDGKKELLVGSEDFDIRVFKEDEIVAEMTETEIVTSLCPMYGSRFGYALSNGTVGVYDKTSRYWRIKSKNHAMSIHAFDLNSDGVNELITGWSNGKVDARSDRTGEVIFKDNFSSAIAGVVEGDYRMDGHIQLICCSVDGEIRGYLPGTAEMRGNLMDTSAEQDLIRELSQKKQNLLLELRNYEENAKAELASPLNEADGHRGIIPANTRLHTTLSVSLGNETQTAHTELRISTSNDTIIRAVLIFAEGIFTGESHVVHPSIHNLSSSICIPIVPPKDVPVDLHLKAFVGYRSSTQFHVFESTRQLPRFSMYALTSLDPASEPISYVNFTIAERAQRVVVWLGQNFLLPEDTHIQNAPFQVCFTSLRNGGHLHIKIKLSGEITINTDDIDLAGDIIQSMASFFAIEDLQVEADFPVYFEELRKVLVKVDEYHSVHQKLSADMADHSNLIRSLLVGAEDARLMRDMKTMKSRYMELYDLNRDLLNGYKIRCNNHTELLGNLKAVNQAIQRAGRLRVGKPKNQVITACRDAIRSNNINTLFKIMRVGTASS
partner: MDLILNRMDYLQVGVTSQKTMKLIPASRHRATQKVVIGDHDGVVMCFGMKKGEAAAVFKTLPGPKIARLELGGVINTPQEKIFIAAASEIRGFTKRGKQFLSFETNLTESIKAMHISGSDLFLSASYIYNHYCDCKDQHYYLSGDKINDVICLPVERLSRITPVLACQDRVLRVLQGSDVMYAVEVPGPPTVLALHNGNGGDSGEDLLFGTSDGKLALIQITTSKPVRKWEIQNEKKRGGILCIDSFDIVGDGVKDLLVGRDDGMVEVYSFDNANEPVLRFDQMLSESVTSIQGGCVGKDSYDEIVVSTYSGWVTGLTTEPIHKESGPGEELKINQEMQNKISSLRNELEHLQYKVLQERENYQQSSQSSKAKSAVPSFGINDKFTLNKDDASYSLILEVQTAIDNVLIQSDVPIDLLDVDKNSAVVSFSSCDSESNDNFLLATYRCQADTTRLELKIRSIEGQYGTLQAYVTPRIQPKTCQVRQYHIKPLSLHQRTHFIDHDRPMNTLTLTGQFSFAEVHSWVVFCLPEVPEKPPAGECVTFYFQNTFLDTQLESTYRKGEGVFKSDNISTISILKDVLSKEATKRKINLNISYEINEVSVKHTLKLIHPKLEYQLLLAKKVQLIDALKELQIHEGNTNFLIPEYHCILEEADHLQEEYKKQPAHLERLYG

Variants of: B1
Conditions: with BBS7, Q8IWZ6-2

Row | Variant | effect of a mutation on the interaction
1 | I445K | with no effect
2 | R539E | with no effect
3 | P432K | with no effect
4 | P432A | with no effect
5 | P432E | with no effect
6 | R699E | with no effect
7 | S407K | with no effect
8 | H525A | with no effect
9 | H525K | with no effect
10 | T558A | with no effect
11 | A529E | with no effect
12 | V389K | disrupting interaction strength
13 | L597E | with no effect
14 | S439E | with no effect
15 | L478A | disrupting interaction strength
16 | H470E | with no effect
17 | G425K | with no effect
18 | G425A | with no effect
19 | I377A | with no effect
20 | D700A | with no effect
21 | V429A | with no effect
22 | S642A | with no effect
23 | L455E | disrupting interaction strength

Row | Variant | effect of a mutation on the interaction
24 | A485K | with no effect
25 | G392A | with no effect
26 | I577A | with no effect
27 | I577K | with no effect
28 | S405E | with no effect
29 | R464K | with no effect
30 | P495E | with no effect
31 | M714K | with no effect
32 | M714A | with no effect
33 | N368A | with no effect
34 | E667K | with no effect
35 | D409A | with no effect
36 | D409K | with no effect
37 | T381E | with no effect
38 | T381A | with no effect
39 | V471E | with no effect
40 | G670A | with no effect
41 | I707K | with no effect
42 | N708E | with no effect
43 | Y463E | with no effect
44 | N347E | with no effect
45 | L580K | with no effect
46 | R353K | with no effect

Row | Variant | effect of a mutation on the interaction
47 | S474K | with no effect
48 | L544A | with no effect
49 | K638E | with no effect
50 | L348A | with no effect
51 | T424K | with no effect
52 | A333E | with no effect
53 | K360E | with no effect
54 | R661E | with no effect
55 | R661A | with no effect
56 | A361K | with no effect
57 | T524A | with no effect
58 | A364K | with no effect
59 | I548E | with no effect
60 | H399E | with no effect
61 | P452E | with no effect
62 | K345E | with no effect
63 | R632K | with no effect
64 | R632E | with no effect
65 | S573K | with no effect
66 | V461K | with no effect
67 | I702A | with no effect
68 | S497E | with no effect
69 | V694E | with no effect

Row | Variant | effect of a mutation on the interaction
70 | L650A | with no effect
71 | N619A | with no effect
72 | C662E | with no effect
73 | I417A | with no effect
74 | H665K | with no effect
75 | V598E | with no effect
76 | D559A | with no effect
77 | D630E | with no effect
78 | L349K | with no effect
79 | Q396A | with no effect
80 | L350E | with no effect
81 | E420A | with no effect
82 | Q468L | disrupting interaction strength
83 | I568E | disrupting interaction strength
84 | T400K | with no effect
85 | T331A | with no effect
86 | L654E | with no effect
87 | N692E | with no effect
88 | F518A | with no effect
89 | T406A | with no effect
